Data taken from IntAct's records for PubMed 29039417.

B1: Protein PTHB1 (Homo sapiens), Q3SYG4 (parent)
chain: MSLFKARDWWSTILGDKEEFDQGCLCLANVDNSGNGQDKIIVGSFMGYLRIFSPHPAKTGDGAQAEDLLLEVDLRDPVLQVEVGKFVSGTEMLHLAVLHSRKLCVYSVSGTLGNVEHGNQCQMKLMYEHNLQRTACNMTYGSFGGVKGRDLICIQSMDGMLMVFEQESYAFGRFLPGFLLPGPLAYSSRTDSFLTVSSCQQVESYKYQVLAFATDADKRQETEQQKLGSGKRLVVDWTLNIGEQALDICIVSFNQSASSVFVLGERNFFCLKDNGQIRFMKKLDWSPSCFLPYCSVSEGTINTLIGNHNNMLHIYQDVTLKWATQLPHIPVAVRVGCLHDLKGVIVTLSDDGHLQCSYLGTDPSLFQAPNVQSRELNYDELDVEMKELQKIIKDVNKSQGVWPMTEREDDLNVSVVVSPNFDSVSQATDVEVGTDLVPSVTVKVTLQNRVILQKAKLSVYVQPPLELTCDQFTFEFMTPDLTRTVSFSVYLKRSYTPSELEGNAVVSYSRPTDRNPDGIPRVIQCKFRLPLKLICLPGQPSKTASHKITIDTNKSPVSLLSLFPGFASQSDDDQVNVMGFHFLGGARITVLASKTSQRYRIQSEQFEDLWLITNELILRLQEYFEKQGVKDFACSFSGSIPLQEYFELIDHHFELRINGEKLEELLSERAVQFRAIQRRLLARFKDKTPAPLQHLDTLLDGTYKQVIALADAVEENQGNLFQSFTRLKSATHLVILLIALWQKLSADQVAILEAAFLPLQEDTQELGWEETVDAAISHLLKTCLSKSSKEQALNLNSQLNIPKDTSQLKKHITLLCDRLSKGGRLCLSTDAAAPQTMVMPGGCTTIPESDLEERSVEQDSTELFTNHRHLTAETPRPEVSPLQGVSE
partner: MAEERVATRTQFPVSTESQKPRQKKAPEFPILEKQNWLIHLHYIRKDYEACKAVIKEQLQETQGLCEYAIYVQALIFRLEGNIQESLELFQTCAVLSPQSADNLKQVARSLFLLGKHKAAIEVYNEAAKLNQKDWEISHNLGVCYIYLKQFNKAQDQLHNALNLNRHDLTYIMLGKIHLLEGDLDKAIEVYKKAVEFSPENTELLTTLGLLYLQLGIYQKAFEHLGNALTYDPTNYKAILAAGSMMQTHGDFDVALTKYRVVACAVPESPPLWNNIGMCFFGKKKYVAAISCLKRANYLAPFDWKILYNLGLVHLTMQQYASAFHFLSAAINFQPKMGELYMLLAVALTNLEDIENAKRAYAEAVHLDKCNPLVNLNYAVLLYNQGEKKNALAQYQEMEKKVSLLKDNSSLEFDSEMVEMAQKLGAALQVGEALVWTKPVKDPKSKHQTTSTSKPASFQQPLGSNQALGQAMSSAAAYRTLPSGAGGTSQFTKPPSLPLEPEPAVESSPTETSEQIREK

Variants of: B1
Settings: with bbs4_human BBS4, Q96RK4

Row | Variant | effect of a mutation on the interaction
1 | L531K | with no effect
2 | L531E | with no effect
3 | L531A | with no effect
4 | V522E | with no effect
5 | V522A | with no effect
6 | V522K | with no effect
7 | R528A | with no effect
8 | R528E | with no effect
9 | R528K | with no effect
10 | I534E | with no effect
11 | I534A | with no effect
12 | I534K | with no effect
13 | I519K | with no effect
14 | I519A | with no effect
15 | I519E | with no effect
16 | P516A | with no effect
17 | P516K | with no effect
18 | P516E | with no effect
19 | K532A | with no effect
20 | K532E | with no effect
21 | L533A | with no effect
22 | L533E | with no effect
23 | L533K | with no effect
24 | R514E | with no effect
25 | R514A | with no effect
26 | R514K | with no effect

Row | Variant | effect of a mutation on the interaction
27 | C535A | with no effect
28 | C535E | with no effect
29 | C535K | with no effect
30 | G518K | with no effect
31 | G518E | with no effect
32 | G518A | with no effect
33 | N515A | with no effect
34 | N515C | disrupting interaction strength
35 | N515E | with no effect
36 | N515K | with no effect
37 | F527A | with no effect
38 | F527K | with no effect
39 | F527E | with no effect
40 | P537E | with no effect
41 | P537K | with no effect
42 | P537A | with no effect
43 | Q524A | with no effect
44 | Q524E | with no effect
45 | Q524K | with no effect
46 | T512K | with no effect
47 | P530A | with no effect
48 | P530K | with no effect
49 | P530S | disrupting interaction strength
50 | P530L | disrupting interaction strength
51 | P530E | with no effect
52 | D513A | with no effect

Row | Variant | effect of a mutation on the interaction
53 | D513K | with no effect
54 | D513E | with no effect
55 | R521A | with no effect
56 | R521E | with no effect
57 | R521K | with no effect
58 | L529K | with no effect
59 | L529P | disrupting interaction strength
60 | L529A | with no effect
61 | L529E | with no effect
62 | P520A | with no effect
63 | P520K | with no effect
64 | P520E | with no effect
65 | K526A | with no effect
66 | K526E | with no effect
67 | L536E | with no effect
68 | L536A | with no effect
69 | L536K | with no effect
70 | D517E | with no effect
71 | D517K | with no effect
72 | D517A | with no effect
73 | I523A | with no effect
74 | I523K | with no effect
75 | I523E | with no effect
76 | C525A | with no effect
77 | C525K | with no effect
78 | C525E | with no effect

The remaining lines, values ahead:

Row | effect of a mutation on the interaction | Variant
79 | with no effect | S545K
80 | with no effect | S545A
81 | with no effect | S545E
82 | with no effect | I548E
83 | with no effect | I548A
84 | with no effect | I548K
85 | disrupting interaction strength | G565R
86 | with no effect | G565A
87 | with no effect | G565E
88 | with no effect | G565K
89 | with no effect | S558A
90 | with no effect | S558E
91 | with no effect | S558K
92 | with no effect | D551A
93 | with no effect | D551E
94 | with no effect | D551K
95 | with no effect | P540K
96 | with no effect | P540E
97 | with no effect | P540A
98 | with no effect | F563A
99 | with no effect | F563K
100 | disrupting interaction strength | F563S
101 | with no effect | F563E
102 | with no effect | K554E
103 | with no effect | K554A
104 | disrupting interaction strength | K554S

Row | effect of a mutation on the interaction | Variant
105 | with no effect | D571K
106 | with no effect | D571A
107 | with no effect | D571E
108 | with no effect | S541E
109 | with no effect | S541A
110 | with no effect | S541K
111 | with no effect | L559A
112 | disrupting interaction strength | L559F
113 | with no effect | L559K
114 | with no effect | L559E
115 | disrupting interaction strength | P537L
116 | with no effect | F566K
117 | with no effect | F566E
118 | with no effect | F566A
119 | with no effect | S570E
120 | with no effect | S570K
121 | with no effect | S570A
122 | with no effect | T543A
123 | with no effect | T543K
124 | with no effect | T543E
125 | with no effect | S561E
126 | with no effect | S561A
127 | with no effect | S561K
128 | disrupting interaction strength | Q569R
129 | with no effect | Q569K
130 | with no effect | Q569A

Row | effect of a mutation on the interaction | Variant
131 | with no effect | Q569E
132 | with no effect | P564E
133 | with no effect | P564A
134 | disrupting interaction strength | P564S
135 | with no effect | P564K
136 | with no effect | N553E
137 | with no effect | N553K
138 | with no effect | N553A
139 | with no effect | G538E
140 | with no effect | G538K
141 | with no effect | G538A
142 | with no effect | H546K
143 | with no effect | H546A
144 | with no effect | H546E
145 | with no effect | V557A
146 | with no effect | V557K
147 | with no effect | V557E
148 | with no effect | A544K
149 | with no effect | A544E
150 | with no effect | L560A
151 | with no effect | L560K
152 | with no effect | L560E
153 | with no effect | L562E
154 | with no effect | L562K
155 | with no effect | L562A
156 | with no effect | Q539A

Row | effect of a mutation on the interaction | Variant
157 | with no effect | Q539E
158 | with no effect | Q539K
159 | with no effect | T549E
160 | with no effect | T549K
161 | with no effect | T549A
162 | with no effect | S568A
163 | with no effect | S568K
164 | with no effect | S568E
165 | with no effect | I550K
166 | with no effect | I550E
167 | with no effect | I550A
168 | with no effect | K547A
169 | with no effect | K547E
170 | with no effect | A567K
171 | with no effect | A567E
172 | with no effect | K542A
173 | with no effect | K542E
174 | with no effect | T552K
175 | with no effect | T552A
176 | with no effect | T552E
177 | with no effect | S555K
178 | with no effect | S555E
179 | with no effect | S555A
180 | with no effect | P556A
181 | with no effect | P556K
182 | with no effect | P556E
